These results are taken from patent US20120207676 (published 2012).

The target in assay [1] is T1, Neurotensin receptor NTS1 (HT29 cells/membranes) (human, UniProt P30989). In words: competition, HT29 membranes.
Assay [2] has as its target T1, Neurotensin receptor NTS1 (HT29 …). In words: competition, HT29 cells.

T1 sequence (P30989 whole entry): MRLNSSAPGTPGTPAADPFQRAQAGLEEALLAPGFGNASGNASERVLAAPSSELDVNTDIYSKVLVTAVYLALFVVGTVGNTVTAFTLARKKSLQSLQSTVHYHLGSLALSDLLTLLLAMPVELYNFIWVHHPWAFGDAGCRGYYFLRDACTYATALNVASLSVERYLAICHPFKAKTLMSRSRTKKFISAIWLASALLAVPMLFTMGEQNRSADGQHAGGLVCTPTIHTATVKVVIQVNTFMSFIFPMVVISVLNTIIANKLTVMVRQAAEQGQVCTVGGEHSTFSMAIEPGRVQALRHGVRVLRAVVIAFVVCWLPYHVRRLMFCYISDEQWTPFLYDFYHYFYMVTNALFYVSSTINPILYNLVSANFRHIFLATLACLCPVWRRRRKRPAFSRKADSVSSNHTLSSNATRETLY

The molecule KPRRPYIL (not fully specified; N-methylated Pro7-Arg8 bond, Tle12; DTPA(In) at Lys6) [DTPA(In)-NT-20.3] displayed a Ki in assay [1] of 2.24 nM. The molecule further had an IC50 in assay [2] of 15.9 nM.
Turning to KPRRPYIL (not fully specified; N-methylated Pro7-Arg8 bond, Tle12; DOTA(Ga) at Lys6) [DOTA(Ga)-NT-20.3], in assay [2], the IC50 is 13.9 nM.
KPRRPYIL (NT(6-13) analogue, N-methylated Pro7-Arg8 bond, Tle12) [NT-20.3] displayed a Ki in assay [1] of 0.16 nM. For the same molecule, the IC50 in assay [2] came to 2.2 nM.
For KPRRPYIL (not fully specified; N-methylated Pro7-Arg8 bond, Tle12; DOTA(Y) at Lys6) [DOTA(Y)-NT-20.3], in assay [2], the IC50 amounted to 7 nM.
On the same count and under the same terms, then KPRRPYIL (not fully specified; N-methylated Pro7-Arg8 bond, Tle12; DOTA(In) at Lys6) [DOTA(In)-NT-20.3], with 14.9 nM.

Broadly, the Ki is the dissociation constant of the complex between target and ligand, obtained from inhibition or displacement. Lower therefore signals higher affinity. Broadly, the IC50 is the concentration at which inhibition is half-maximal. A higher IC50 goes with weaker potency.
